From patent US20230265151A1, “GIP/GLP1 CO-AGONIST COMPOUNDS” (priority 2020, published 2023) come the findings set out here.

Bounds are passed on as bounds.

Common to all, as to assay: cell-based or functional assay
One test deals with hGLP-1R (Homo sapiens, UniProt P43220).
Test [1] has as its target T1, human GIP receptor (human) (UniProt P48546).
T1 sequence (looked up): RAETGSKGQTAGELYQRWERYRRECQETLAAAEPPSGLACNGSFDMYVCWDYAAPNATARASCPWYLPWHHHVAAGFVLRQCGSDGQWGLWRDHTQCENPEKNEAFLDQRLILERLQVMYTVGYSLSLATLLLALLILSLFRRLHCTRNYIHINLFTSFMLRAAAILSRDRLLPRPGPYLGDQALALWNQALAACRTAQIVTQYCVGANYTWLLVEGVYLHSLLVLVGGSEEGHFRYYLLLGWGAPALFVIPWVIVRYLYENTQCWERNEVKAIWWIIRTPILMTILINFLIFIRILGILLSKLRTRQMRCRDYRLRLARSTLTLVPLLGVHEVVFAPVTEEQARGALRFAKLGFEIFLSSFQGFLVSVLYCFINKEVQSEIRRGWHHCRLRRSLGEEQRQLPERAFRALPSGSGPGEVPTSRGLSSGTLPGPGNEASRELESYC

The target of test [2] is human glucagon receptor (human) (UniProt P47871).
Test [3] deals with human GLP-1 receptor (human, UniProt P43220 24-463).
Test [4] concerns the target T2, human GIP receptor (human, UniProt P48546 22-466).
T2 sequence (looked up): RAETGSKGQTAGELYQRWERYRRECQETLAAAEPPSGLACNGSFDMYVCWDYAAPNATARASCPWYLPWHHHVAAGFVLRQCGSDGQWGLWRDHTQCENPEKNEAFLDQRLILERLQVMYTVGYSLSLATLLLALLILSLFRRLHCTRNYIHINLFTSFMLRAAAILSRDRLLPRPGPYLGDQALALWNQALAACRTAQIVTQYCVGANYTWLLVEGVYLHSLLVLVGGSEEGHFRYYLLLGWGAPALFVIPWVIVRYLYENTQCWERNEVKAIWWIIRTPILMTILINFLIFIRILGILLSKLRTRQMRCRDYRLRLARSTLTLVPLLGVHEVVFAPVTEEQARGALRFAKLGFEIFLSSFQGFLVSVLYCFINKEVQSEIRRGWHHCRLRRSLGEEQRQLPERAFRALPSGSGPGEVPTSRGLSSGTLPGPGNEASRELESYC

Test [5] concerns the target T3, human GIP receptor (human, UniProt P48546 22-466).
T3 sequence (looked up): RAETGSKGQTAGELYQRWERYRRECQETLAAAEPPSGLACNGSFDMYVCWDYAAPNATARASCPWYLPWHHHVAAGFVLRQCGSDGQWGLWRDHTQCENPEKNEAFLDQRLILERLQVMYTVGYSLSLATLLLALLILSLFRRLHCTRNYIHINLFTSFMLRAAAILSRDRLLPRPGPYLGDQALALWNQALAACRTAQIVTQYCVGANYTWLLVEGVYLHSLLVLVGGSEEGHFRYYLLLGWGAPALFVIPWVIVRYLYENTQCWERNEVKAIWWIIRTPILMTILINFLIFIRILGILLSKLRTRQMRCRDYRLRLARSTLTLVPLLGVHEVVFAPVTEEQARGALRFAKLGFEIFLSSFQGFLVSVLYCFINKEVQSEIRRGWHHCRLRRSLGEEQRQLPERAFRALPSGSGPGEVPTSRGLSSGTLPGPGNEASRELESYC
This is another data set of the same source.

Test [6] concerns the target human GLP-1 receptor (human, UniProt P43220 24-463). The source holds these as a separate data set.

“Y-Aib-EGT-αMeF(2F)-TSD-4Pal-αMeS-I-αMeL-LD-Orn-K((2-[2-(2-Amino-ethoxy)-ethoxy]-acetyl)2-(γ-Glu)-CO-(CH2)12-CO2H)AQ-Aib-EFIK((2-[2-(2-Amino-ethoxy)-ethoxy]-acetyl)2-(γ-Glu)-CO-(CH2)12-CO2H)-αMeY-…-NH2 (peptide)”: the cAMP EC50 (1.0% HSA) was 17.9 nM in the test with hGLP-1R, 2.03 nM in test [1] and more than 9950 nM in test [2]. Further, the cAMP Emax (1.0% HSA) in the test with hGLP-1R came to 108%; in test [1], 80.4%.
Take “Y-Aib-EGT-αMeF(2F)-TSD-4Pal-SI-αMeL-LD-Orn-IAQ-Aib-K((2-[2-(2-Amino-ethoxy)-ethoxy]-acetyl)2-CO-(CH2)12-CO2H)FIK((2-[2-(2-Amino-ethoxy)-ethoxy]-acetyl)2-CO-(CH2)12-CO2H)-αMeY-…-NH2 (peptide)”: the cAMP EC50 (1.0% HSA) is 13.1 nM in the test with hGLP-1R, 0.866 nM in test [1] and more than 9950 nM in test [2]. In addition, the cAMP Emax (1.0% HSA) with hGLP-1R came out at 105%; in test [1], 86.2%.
The corresponding values for “Y-Aib-EGT-αMeF(2F)-TSD-4Pal-SI-αMeL-LD-Orn-IAQ-Aib-EFIK((2-[2-(2-Amino-ethoxy)-ethoxy]-acetyl)2-(γ-Glu)-CO-(CH2)12-CO2H)-αMeY-…((2-[2-(2-Amino-ethoxy)-ethoxyl-acetyl)2-(γ-Glu)-CO-(CH2)12-CO2H)-NH2 (peptide)” are 40.1 nM, 3.55 nM, more than 9950 nM, 98.8% and 95.9%.

B1: Example 334 (peptide)
peptide: YXEGTXTSDXXIXLDXKAQXEFIXXLIKGGPSSGAPPPS
modifications: Y-Aib-EGT-αMeF(2F)-TSD-4Pal-Aib-I-αMeL-LD-Orn-K((2-[2-(2-Amino-ethoxy)-ethoxy]-acetyl)2-(γ-Glu)-CO-(CH2)10-CH3)AQ-Aib-EFI-(D-Glu)-αMeY-LIK((2-[2-(2-Amino-ethoxy)-ethoxy]-acetyl)2-(γ-Glu)-CO-(CH2)10-CH3)GGPSSGAPPPS-NH2
Turning to B1, the figures for the “cAMP EC50 (1.0% HSA)” value with human GLP-1 receptor [3] and in the test with human GIP receptor [4] were 8.67 nM and 0.618 nM, respectively. Further, the cAMP EC50 is 0.131 nM with hGLP-1R, 0.00987 nM in test [1] and more than 9950 nM in test [2]. Further, the results for the cAMP Emax (with hGLP-1R; in test [1]) were 104% and 103%, respectively.

B2: Example 427 (peptide)
peptide: YXEGTXTSDXXIXLDXKAQXEFIXXLIKGGPSSGAPPPS
modifications: Y-Aib-EGT-αMeF(2F)-TSD-4Pal-Aib-I-αMeL-LD-Orn-K((2-[2-(2-Amino-ethoxy)-ethoxy]-acetyl)-(γ-Glu)-CO-(CH2)10-CH3)AQ-Aib-EFI-(D-Glu)-αMeY-LIK((2-[2-(2-Amino-ethoxy)-ethoxy]-acetyl)-(γ-Glu)-CO-(CH2)10-CH3)GGPSSGAPPPS-NH2
As to B2, the “cAMP EC50 (1.0% HSA)” value with human GIP receptor [5] amounted to 2.04 nM; in the test with human GLP-1 receptor [6], 25.1 nM. Moreover, the “cAMP Emax (1.0% HSA)” value with human GIP receptor [5] was 92.4%. Further, the cAMP EC50 with hGLP-1R is 0.206 nM; in test [1], 0.0132 nM; in test [2], more than 9950 nM. In addition, the results for the cAMP Emax (with hGLP-1R; in test [1]) were 109% and 95.9%, respectively.

B3: Example 465 (peptide)
peptide: YXEGTXTSDXXIXLDXKAQXEFIXXLIKGGPSSGAPPPS
modifications: Y-Aib-EGT-αMeF(2F)-TSD-4Pal-Aib-I-αMeL-LD-Orn-K((2-[2-(2-Amino-ethoxy)-ethoxy]-acetyl)-Aoc-CO-(CH2)12-CO2H)AQ-Aib-EFI-(D-Glu)-αMeY-LIK(((2-[2-(2-Amino-ethoxy)-ethoxy]-acetyl)-Aoc-CO-(CH2)12-CO2H)GGPSSGAPPPS-NH2)
Consider B3, for which the “cAMP EC50 (1.0% HSA)” value stood at 3.63 nM in the test with human GIP receptor [5] and 73.2 nM with human GLP-1 receptor [6]. In addition, in the test with human GIP receptor [5], the “cAMP Emax (1.0% HSA)” value came out at 94.4%. Moreover, the cAMP EC50 with hGLP-1R was 0.413 nM; in test [1] it was 0.0174 nM; in test [2], more than 9950 nM. Also, the cAMP Emax came to 98.6% with hGLP-1R and 94.9% in test [1].

B4: Example 387 (peptide)
peptide: YXEGTXTSDXXIXLDXKAQXEFIXXLIKGGPSSGAPPPS
modifications: Y-Aib-EGT-αMeF(2F)-TSD-4Pal-Aib-I-αMeL-LD-Orn-K((2-[2-(2-Amino-ethoxy)-ethoxy]-acetyl)2-CO-(CH2)12-CO2H)AQ-Aib-EFI-(D-Glu)-αMeY-LIK((2-[2-(2-Amino-ethoxy)-ethoxy]-acetyl)2-CO-(CH2)12-CO2H)GGPSSGAPPPS-NH2
Turning to B4, the “cAMP EC50 (1.0% HSA)” value was 0.278 nM in the test with human GIP receptor [5] and 4.4 nM in the test with human GLP-1 receptor [6]. For the same molecule, the “cAMP Emax (1.0% HSA)” value in the test with human GIP receptor [5] was determined as 93%. Further, the cAMP EC50 with hGLP-1R was 0.32 nM; in test [1], 0.0137 nM; in test [2], more than 9950 nM. Moreover, the values for the cAMP Emax (with hGLP-1R; in test [1]) were 101% and 102%, respectively.

B5: Example 406 (peptide)
peptide: YXEGTXTSDXXIXLDXKAQXKFIXXLIXGGPSSGAPPPS
modifications: Y-Aib-EGT-αMeF(2F)-TSD-4Pal-Aib-I-αMeL-LD-Orn-K((2-[2-(2-Amino-ethoxy)-ethoxy]-acetyl)2-(γ-Glu)-CO-(CH2)12-CO2H)AQ-Aib-K((2-[2-(2-Amino-ethoxy)-ethoxy]-acetyl)2-(γ-Glu)-CO-(CH2)12-CO2H)FI-(D-Glu)-αMeY-LI-Orn-GGPSSGAPPPS-NH2
On to B5, for which the “cAMP EC50 (1.0% HSA)” value is 0.527 nM in the test with human GIP receptor [5] and 9.21 nM in the test with human GLP-1 receptor [6]. In addition, the values for the cAMP EC50 (in the test with hGLP-1R; in test [1]; in test [2]) were 0.351 nM, 0.00896 nM and more than 9950 nM, respectively. The cAMP Emax was found to be 98.5% with hGLP-1R and 101% in test [1].
